# Publication PMC11533527, “A yeast two-hybrid system to obtain triple-helical ligands from combinatorial random peptide libraries” (The Journal of Biological Chemistry, 2024)
# Molecular target: the molecule itself
# Assay: circular dichroism with thermal melting; peptides in PBS, heated at 95 °C, annealed at 4 °C overnight; [θ]225 followed from 4 to 85 °C; chains of one peptide forming a triple helix
# Chain of synthetic triple-helical peptide pepα1(I)930-938: H-Tyr-(Pro-Hyp-Gly)4-Pro-Lys-Gly-His-Arg-Gly-Phe-Ser-Gly-Leu-Hyp-Gly-(Pro-Hyp-Gly)4-NH2 (chain): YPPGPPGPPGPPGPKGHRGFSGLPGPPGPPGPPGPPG
row,Protein,binding result
1,"YPPGPPGPPGPPGPRGRRGLHGLPGPPGPPGPPGPPG (HELM PEPTIDE1{Y.P.[Hyp].G.P.[Hyp].G.P.[Hyp].G.P.[Hyp].G.P.R.G.R.R.G.L.H.G.L.[Hyp].G.P.[Hyp].G.P.[Hyp].G.P.[Hyp].G.P.[Hyp].G.[am]}$$$$V2.0; N-terminus assumed; SMILES CC(C)C[C@H](NC(=O)CNC(=O)[C@H](CCCNC(=N)N)NC(=O)[C@H](CCCNC(=N)N)NC(=O)CNC(=O)[C@H](CCCNC(=N)N)NC(=O)[C@@H]1CCCN1C(=O)CNC(=O)[C@@H]1C[C@@H](O)CN1C(=O)[C@@H]1CCCN1C(=O)CNC(=O)[C@@H]1C[C@@H](O)CN1C(=O)[C@@H]1CCCN1C(=O)CNC(=O)[C@@H]1C[C@@H](O)CN1C(=O)[C@@H]1CCCN1C(=O)CNC(=O)[C@@H]1C[C@@H](O)CN1C(=O)[C@@H]1CCCN1C(=O)[C@@H](N)Cc1ccc(O)cc1)C(=O)N[C@@H](Cc1c[nH]cn1)C(=O)NCC(=O)N[C@@H](CC(C)C)C(=O)N1C[C@H](O)C[C@H]1C(=O)NCC(=O)N1CCC[C@H]1C(=O)N1C[C@H](O)C[C@H]1C(=O)NCC(=O)N1CCC[C@H]1C(=O)N1C[C@H](O)C[C@H]1C(=O)NCC(=O)N1CCC[C@H]1C(=O)N1C[C@H](O)C[C@H]1C(=O)NCC(=O)N1CCC[C@H]1C(=O)N1C[C@H](O)C[C@H]1C(=O)NCC(N)=O, guest made of the residue most frequent at each position in the selection; Triple helix by CD; annealed before use; source: synthetic peptide (Fmoc solid phase, RP-HPLC purified)) [synthetic triple-helical peptide pepfreq]",binds
2,"YPPGPPGPPGPPGPRGHRGFLGLPGPPGPPGPPGPPG (HELM PEPTIDE1{Y.P.[Hyp].G.P.[Hyp].G.P.[Hyp].G.P.[Hyp].G.P.R.G.H.R.G.F.L.G.L.[Hyp].G.P.[Hyp].G.P.[Hyp].G.P.[Hyp].G.P.[Hyp].G.[am]}$$$$V2.0; N-terminus assumed; SMILES CC(C)C[C@H](NC(=O)[C@H](Cc1ccccc1)NC(=O)CNC(=O)[C@H](CCCNC(=N)N)NC(=O)[C@H](Cc1c[nH]cn1)NC(=O)CNC(=O)[C@H](CCCNC(=N)N)NC(=O)[C@@H]1CCCN1C(=O)CNC(=O)[C@@H]1C[C@@H](O)CN1C(=O)[C@@H]1CCCN1C(=O)CNC(=O)[C@@H]1C[C@@H](O)CN1C(=O)[C@@H]1CCCN1C(=O)CNC(=O)[C@@H]1C[C@@H](O)CN1C(=O)[C@@H]1CCCN1C(=O)CNC(=O)[C@@H]1C[C@@H](O)CN1C(=O)[C@@H]1CCCN1C(=O)[C@@H](N)Cc1ccc(O)cc1)C(=O)NCC(=O)N[C@@H](CC(C)C)C(=O)N1C[C@H](O)C[C@H]1C(=O)NCC(=O)N1CCC[C@H]1C(=O)N1C[C@H](O)C[C@H]1C(=O)NCC(=O)N1CCC[C@H]1C(=O)N1C[C@H](O)C[C@H]1C(=O)NCC(=O)N1CCC[C@H]1C(=O)N1C[C@H](O)C[C@H]1C(=O)NCC(=O)N1CCC[C@H]1C(=O)N1C[C@H](O)C[C@H]1C(=O)NCC(N)=O, Triple helix by CD; annealed before use; source: synthetic peptide (Fmoc solid phase, RP-HPLC purified)) [synthetic triple-helical peptide pep3]",binds
3,"YPPGPPGPPGPPGPRGPRGLTGFPGPPGPPGPPGPPG (HELM PEPTIDE1{Y.P.[Hyp].G.P.[Hyp].G.P.[Hyp].G.P.[Hyp].G.P.R.G.P.R.G.L.T.G.F.[Hyp].G.P.[Hyp].G.P.[Hyp].G.P.[Hyp].G.P.[Hyp].G.[am]}$$$$V2.0; N-terminus assumed; SMILES CC(C)C[C@H](NC(=O)CNC(=O)[C@H](CCCNC(=N)N)NC(=O)[C@@H]1CCCN1C(=O)CNC(=O)[C@H](CCCNC(=N)N)NC(=O)[C@@H]1CCCN1C(=O)CNC(=O)[C@@H]1C[C@@H](O)CN1C(=O)[C@@H]1CCCN1C(=O)CNC(=O)[C@@H]1C[C@@H](O)CN1C(=O)[C@@H]1CCCN1C(=O)CNC(=O)[C@@H]1C[C@@H](O)CN1C(=O)[C@@H]1CCCN1C(=O)CNC(=O)[C@@H]1C[C@@H](O)CN1C(=O)[C@@H]1CCCN1C(=O)[C@@H](N)Cc1ccc(O)cc1)C(=O)N[C@H](C(=O)NCC(=O)N[C@@H](Cc1ccccc1)C(=O)N1C[C@H](O)C[C@H]1C(=O)NCC(=O)N1CCC[C@H]1C(=O)N1C[C@H](O)C[C@H]1C(=O)NCC(=O)N1CCC[C@H]1C(=O)N1C[C@H](O)C[C@H]1C(=O)NCC(=O)N1CCC[C@H]1C(=O)N1C[C@H](O)C[C@H]1C(=O)NCC(=O)N1CCC[C@H]1C(=O)N1C[C@H](O)C[C@H]1C(=O)NCC(N)=O)[C@@H](C)O, Triple helix by CD; annealed before use; source: synthetic peptide (Fmoc solid phase, RP-HPLC purified)) [synthetic triple-helical peptide pep5]",binds
4,"YPPGPPGPPGPPGPNGRRGFMGMPGPPGPPGPPGPPG (HELM PEPTIDE1{Y.P.[Hyp].G.P.[Hyp].G.P.[Hyp].G.P.[Hyp].G.P.N.G.R.R.G.F.M.G.M.[Hyp].G.P.[Hyp].G.P.[Hyp].G.P.[Hyp].G.P.[Hyp].G.[am]}$$$$V2.0; N-terminus assumed; SMILES CSCC[C@H](NC(=O)[C@H](Cc1ccccc1)NC(=O)CNC(=O)[C@H](CCCNC(=N)N)NC(=O)[C@H](CCCNC(=N)N)NC(=O)CNC(=O)[C@H](CC(N)=O)NC(=O)[C@@H]1CCCN1C(=O)CNC(=O)[C@@H]1C[C@@H](O)CN1C(=O)[C@@H]1CCCN1C(=O)CNC(=O)[C@@H]1C[C@@H](O)CN1C(=O)[C@@H]1CCCN1C(=O)CNC(=O)[C@@H]1C[C@@H](O)CN1C(=O)[C@@H]1CCCN1C(=O)CNC(=O)[C@@H]1C[C@@H](O)CN1C(=O)[C@@H]1CCCN1C(=O)[C@@H](N)Cc1ccc(O)cc1)C(=O)NCC(=O)N[C@@H](CCSC)C(=O)N1C[C@H](O)C[C@H]1C(=O)NCC(=O)N1CCC[C@H]1C(=O)N1C[C@H](O)C[C@H]1C(=O)NCC(=O)N1CCC[C@H]1C(=O)N1C[C@H](O)C[C@H]1C(=O)NCC(=O)N1CCC[C@H]1C(=O)N1C[C@H](O)C[C@H]1C(=O)NCC(=O)N1CCC[C@H]1C(=O)N1C[C@H](O)C[C@H]1C(=O)NCC(N)=O, Triple helix by CD; annealed before use; source: synthetic peptide (Fmoc solid phase, RP-HPLC purified)) [synthetic triple-helical peptide pep6]",binds
5,"YPPGPPGPPGPPGPKGRRGFHGLPGPPGPPGPPGPPG (HELM PEPTIDE1{Y.P.[Hyp].G.P.[Hyp].G.P.[Hyp].G.P.[Hyp].G.P.K.G.R.R.G.F.H.G.L.[Hyp].G.P.[Hyp].G.P.[Hyp].G.P.[Hyp].G.P.[Hyp].G.[am]}$$$$V2.0; N-terminus assumed; SMILES CC(C)C[C@H](NC(=O)CNC(=O)[C@H](Cc1c[nH]cn1)NC(=O)[C@H](Cc1ccccc1)NC(=O)CNC(=O)[C@H](CCCNC(=N)N)NC(=O)[C@H](CCCNC(=N)N)NC(=O)CNC(=O)[C@H](CCCCN)NC(=O)[C@@H]1CCCN1C(=O)CNC(=O)[C@@H]1C[C@@H](O)CN1C(=O)[C@@H]1CCCN1C(=O)CNC(=O)[C@@H]1C[C@@H](O)CN1C(=O)[C@@H]1CCCN1C(=O)CNC(=O)[C@@H]1C[C@@H](O)CN1C(=O)[C@@H]1CCCN1C(=O)CNC(=O)[C@@H]1C[C@@H](O)CN1C(=O)[C@@H]1CCCN1C(=O)[C@@H](N)Cc1ccc(O)cc1)C(=O)N1C[C@H](O)C[C@H]1C(=O)NCC(=O)N1CCC[C@H]1C(=O)N1C[C@H](O)C[C@H]1C(=O)NCC(=O)N1CCC[C@H]1C(=O)N1C[C@H](O)C[C@H]1C(=O)NCC(=O)N1CCC[C@H]1C(=O)N1C[C@H](O)C[C@H]1C(=O)NCC(=O)N1CCC[C@H]1C(=O)N1C[C@H](O)C[C@H]1C(=O)NCC(N)=O, Triple helix by CD; annealed before use; source: synthetic peptide (Fmoc solid phase, RP-HPLC purified)) [synthetic triple-helical peptide pep7]",binds
6,"YPPGPPGPPGPPGPRGPRGFTGFPGPPGPPGPPGPPG (HELM PEPTIDE1{Y.P.[Hyp].G.P.[Hyp].G.P.[Hyp].G.P.[Hyp].G.P.R.G.P.R.G.F.T.G.F.[Hyp].G.P.[Hyp].G.P.[Hyp].G.P.[Hyp].G.P.[Hyp].G.[am]}$$$$V2.0; N-terminus assumed; SMILES C[C@@H](O)[C@H](NC(=O)[C@H](Cc1ccccc1)NC(=O)CNC(=O)[C@H](CCCNC(=N)N)NC(=O)[C@@H]1CCCN1C(=O)CNC(=O)[C@H](CCCNC(=N)N)NC(=O)[C@@H]1CCCN1C(=O)CNC(=O)[C@@H]1C[C@@H](O)CN1C(=O)[C@@H]1CCCN1C(=O)CNC(=O)[C@@H]1C[C@@H](O)CN1C(=O)[C@@H]1CCCN1C(=O)CNC(=O)[C@@H]1C[C@@H](O)CN1C(=O)[C@@H]1CCCN1C(=O)CNC(=O)[C@@H]1C[C@@H](O)CN1C(=O)[C@@H]1CCCN1C(=O)[C@@H](N)Cc1ccc(O)cc1)C(=O)NCC(=O)N[C@@H](Cc1ccccc1)C(=O)N1C[C@H](O)C[C@H]1C(=O)NCC(=O)N1CCC[C@H]1C(=O)N1C[C@H](O)C[C@H]1C(=O)NCC(=O)N1CCC[C@H]1C(=O)N1C[C@H](O)C[C@H]1C(=O)NCC(=O)N1CCC[C@H]1C(=O)N1C[C@H](O)C[C@H]1C(=O)NCC(=O)N1CCC[C@H]1C(=O)N1C[C@H](O)C[C@H]1C(=O)NCC(N)=O, Triple helix by CD; annealed before use; source: synthetic peptide (Fmoc solid phase, RP-HPLC purified)) [synthetic triple-helical peptide pep10]",binds
7,"YPPGPPGPPGPPGPVGRRGLSGLPGPPGPPGPPGPPG (HELM PEPTIDE1{Y.P.[Hyp].G.P.[Hyp].G.P.[Hyp].G.P.[Hyp].G.P.V.G.R.R.G.L.S.G.L.[Hyp].G.P.[Hyp].G.P.[Hyp].G.P.[Hyp].G.P.[Hyp].G.[am]}$$$$V2.0; N-terminus assumed; SMILES CC(C)C[C@H](NC(=O)CNC(=O)[C@H](CCCNC(=N)N)NC(=O)[C@H](CCCNC(=N)N)NC(=O)CNC(=O)[C@@H](NC(=O)[C@@H]1CCCN1C(=O)CNC(=O)[C@@H]1C[C@@H](O)CN1C(=O)[C@@H]1CCCN1C(=O)CNC(=O)[C@@H]1C[C@@H](O)CN1C(=O)[C@@H]1CCCN1C(=O)CNC(=O)[C@@H]1C[C@@H](O)CN1C(=O)[C@@H]1CCCN1C(=O)CNC(=O)[C@@H]1C[C@@H](O)CN1C(=O)[C@@H]1CCCN1C(=O)[C@@H](N)Cc1ccc(O)cc1)C(C)C)C(=O)N[C@@H](CO)C(=O)NCC(=O)N[C@@H](CC(C)C)C(=O)N1C[C@H](O)C[C@H]1C(=O)NCC(=O)N1CCC[C@H]1C(=O)N1C[C@H](O)C[C@H]1C(=O)NCC(=O)N1CCC[C@H]1C(=O)N1C[C@H](O)C[C@H]1C(=O)NCC(=O)N1CCC[C@H]1C(=O)N1C[C@H](O)C[C@H]1C(=O)NCC(=O)N1CCC[C@H]1C(=O)N1C[C@H](O)C[C@H]1C(=O)NCC(N)=O, Triple helix by CD; annealed before use; source: synthetic peptide (Fmoc solid phase, RP-HPLC purified)) [synthetic triple-helical peptide pep11]",binds
8,"synthetic triple-helical peptide pepα1(I)930-938: H-Tyr-(Pro-Hyp-Gly)4-Pro-Lys-Gly-His-Arg-Gly-Phe-Ser-Gly-Leu-Hyp-Gly-(Pro-Hyp-Gly)4-NH2 (4-hydroxyproline (Hyp, written P in letters) at positions 3, 6, 9, 12, 24, 27, 30, 33, 36 of the chain (counted from the printed formula); C-terminal amide, Tyr-(Pro-Hyp-Gly)4-Pro host; Hyp-Gly-(Pro-Hyp-Gly)4 host; Triple helix by CD; annealed before use; source: synthetic peptide (Fmoc solid phase, RP-HPLC purified)) not shown",binds
